This data set concerns the molecule itself. Briefly: SEC.

B1: ArdB from the E. coli K12 CP4-6 prophage (yafX) (natural protein, E. coli K12/CP4-6 prophage, UniProt P75676 1-152, looked up)
chain: MTTQTQHDLAPANQPEFELTVTPVPDEQRIDFWPQYFGAIPQWLLLEPHIFAWMDRFCEGYSGGIWSFYTLSNGGAFMSPEPDNDETWRLFNCLNGNDAQMSAEAAGIAVCLIAYSHHACRTECDAMTAHYYRLREYAMQHPEAHAILRIID
Usually stoichiometry N stands for a count of units in the complex or per binding partner. Take B1: the “stoichiometry N” value is 2.

For the origin of these results see publication PMC2836571 (Nucleic Acids Research, 2009).
